In PMC10310011, “Accelerated absorption of regular insulin administered via a vascularizing permeable microchamber implanted subcutaneously in diabetic Rattus norvegicus” (PLOS ONE, 2023):

Conditions: rat, in vivo
Source text: Male athymic nude R. norvegicus between 9–12 weeks of age and weighing 250–350 g were purchased from Envigo (Livermore, CA, USA). Because estrogen interferes with streptozotocin [44] (see next), only male animals were included. Athymic nude rats were chosen to abrogate a possible antibody response against the human insulin to be injected. Animals were housed for a seven-day acclimatization period before initiating any experimental procedures. To avoid endogenous insulin in subject rats from cross-reacting in the human insulin assays, animals were rendered diabetic by a single intraperitoneal injection, 60 mg/kg, of streptozotocin (Sigma-Aldrich, St. Louis, MO, USA). Blood glucose concentrations were monitored daily using a Freestyle Lite Glucose Monitoring System (Abbott Diabetes Care Inc., Alameda, CA, USA). Rats were considered diabetic when blood glucose concentrations greater than 200 mg/dl were recorded on three consecutive days. Rats verified as diabetic were maintained with exogenous long-acting insulin (Lantus, Sanofi-Aventis, Bridgewater, NJ, USA) throughout the study; maintenance insulin treatment also serves to forestall insulin resistance. Maintenance insulin therapy was suspended for 24 hours prior to each insulin kinetics study. Two days after the initial insulin-kinetics assay two empty, 1.5 cm^2 per side, single-chamber (having a nominal internal volume of 22.5 μl), implantable vascularizing microchambers, IVMs (Procyon Technologies LLC, Tucson, AZ, USA) (Fig 1A) were implanted subcutaneously on the dorsal aspect of each rat. The initial insulin kinetics assays were performed 7 days after STZ induction of diabetes. […] Plasma samples collected from each insulin kinetics assay were analyzed for human insulin concentration using a commercial human insulin ELISA kit (Alpco, Salem, NH, USA). […] The measured insulin concentrations were converted from IU/ml to μg/ml according to the manufacturer’s recommended conversion ratios of 1 IU of human insulin = 6nmol = 34.8 μg of insulin. […] The mean and standard deviation (SD) for each category were then calculated. […]

## insulin human
  Plasma insulin curves after SC injection, diluted versus stock concentration: did not vary significantly
sc
  95% CI of Tmax: 13.18 to 32.27 min
  Tmax (mean peak time of plasma insulin): 22.7 min
